Test results as given in PMC9736779.

Target: nucleolin (NCL) (Homo sapiens) (UniProt P19338)
Experiment: SPR
Details: SPR (Biacore X-100, CM5): 10 mM HEPES, 70 mM KCl, pH 7.4, 25 C, analyte 5-500 uM, two-state reaction fit

Chain of nucleolin (NCL) (Homo sapiens) (P19338 whole entry): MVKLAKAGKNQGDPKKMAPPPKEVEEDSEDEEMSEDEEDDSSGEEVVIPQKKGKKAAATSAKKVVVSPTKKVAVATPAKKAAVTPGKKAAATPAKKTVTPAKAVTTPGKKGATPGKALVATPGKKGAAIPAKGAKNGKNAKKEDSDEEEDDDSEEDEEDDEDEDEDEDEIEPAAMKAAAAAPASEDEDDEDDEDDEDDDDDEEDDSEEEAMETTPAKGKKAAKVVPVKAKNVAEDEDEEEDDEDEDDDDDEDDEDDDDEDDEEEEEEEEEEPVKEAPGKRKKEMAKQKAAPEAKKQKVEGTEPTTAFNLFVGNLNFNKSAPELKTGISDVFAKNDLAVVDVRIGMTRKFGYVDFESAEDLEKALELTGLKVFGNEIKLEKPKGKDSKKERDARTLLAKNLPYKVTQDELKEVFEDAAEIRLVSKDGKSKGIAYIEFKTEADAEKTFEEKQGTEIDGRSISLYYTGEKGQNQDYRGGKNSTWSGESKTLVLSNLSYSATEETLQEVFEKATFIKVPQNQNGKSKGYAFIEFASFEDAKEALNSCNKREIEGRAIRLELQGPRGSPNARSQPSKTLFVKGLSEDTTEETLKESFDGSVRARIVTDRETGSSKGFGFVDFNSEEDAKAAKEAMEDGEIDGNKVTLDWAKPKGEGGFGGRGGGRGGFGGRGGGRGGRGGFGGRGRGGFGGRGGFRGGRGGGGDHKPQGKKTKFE

Row | Sequence | Kd (N at 5,6 = abasic site mimic (dSpacer, 1',2'-dideoxyribose)) | Kd (N at 11-13 = abasic site mimic (dSpacer, 1',2'-dideoxyribose))
1 | GGGGNNGGGGTGTGGGGTTGGGG [TBAG41S] | 41.5 µM | –
2 | GGGGTTGGGGNNNGGGGTTGGGG [TBAG4GS] | – | 32.2 µM
